Experiments:
[1] = system: TM-V129A/I130A TβRI mutant (HA-tagged, in HA-caTβRI)
[2] = system: TβRI intracellular domain fragment (TβRI ICD), about 34 kDa
Sequence of TβRI intracellular domain fragment (TβRI ICD), about 34 kDa (chain, as listed by the source): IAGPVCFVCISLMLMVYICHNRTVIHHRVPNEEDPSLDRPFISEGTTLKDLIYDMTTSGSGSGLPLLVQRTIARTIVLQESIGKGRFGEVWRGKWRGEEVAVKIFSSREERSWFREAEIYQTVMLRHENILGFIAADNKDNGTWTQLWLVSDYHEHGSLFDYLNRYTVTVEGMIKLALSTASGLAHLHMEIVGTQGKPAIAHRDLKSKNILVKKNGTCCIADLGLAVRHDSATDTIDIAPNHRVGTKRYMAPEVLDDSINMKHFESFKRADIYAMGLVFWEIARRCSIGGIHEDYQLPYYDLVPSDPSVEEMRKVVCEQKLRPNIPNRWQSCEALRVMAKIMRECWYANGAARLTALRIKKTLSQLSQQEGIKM

Substance | production of TβRI ICD (immunoblot) [1] | acetylation of the TβRI ICD (immunoblot with anti-acetyl-lysine) [2]
Presenilin 1 (PS1), endogenous | Production of TβRI ICD was observed only in the TGF-treated cells transfected with caTβRI construct | –
p300, endogenous | – | acetylation of the TβRI ICD was verified using an antibody specific for acetyl-lysine

From US20140140998
